From patent US12319925B2, “Methods and compositions for genomic integration” (Myeloid Therapeutics, Inc., priority 2021, dated 2025)

How the values were obtained:
Jurkat cells = assay: GFP expression after delivery of LINE-1 plasmid or mRNA with CMV-GFP antisense reporter; assay type: cell-based; conditions: 4 days post electroporation, relative to mock, FIG. 17B
Description: To test retrotransposition in immune cells, LINE-1 plasmid and mRNA were tested with the CMV-GFP antisense reporter cargo by electroporating into Jurkat cells, which is a T cell lymphoma line (FIG. 17A-FIG. 17B). Mock set were electroporated with a plasmid with no GFP sequence. Fold increase is reported relative to mock transfected cells.

HEK293T cells = assay: Expression of CD5 binder (ATAK) receptor and GFP by flow cytometry with labeled CD5 after LINE-1 plasmid transfection; assay type: cell-based, human
Description: HEK 293 cells were transfected with a plasmid having the LINE-1 elements, with a 3 kb cargo sequence encoding recombinant receptor protein CD5-intron-fcr-PI3K (ATAK) that is interrupted by an intron sequence in the CD5 binding domain. The cargo is a chimeric receptor that has a CD5 binding extracellular domain, a FCRγ transmembrane domain, and an intracellular domain having a PI3-kinase recruitment domain. As in the design of the experiment above, the ATAK receptor cannot express unless it is integrated in the genome and the intron is spliced off. Following transfection in HEK293T cells, the receptor expression is detected using labeled CD5 as bait for the CD5 binding extracellular domain. Results shown in FIGS. 9B and 9C show successful integration and expression of the receptor. 36.5% cells were ATAK (CD5 binder) positive (FIG. 9C).
In a further modification, a LINE-1 construct (LINE-1plasmid-cd5_fcr-pi3k_t2a_GFPintron) with a longer 3.7 kb cargo sequence encoding a non-interrupted recombinant receptor protein CD5-intron-fcr-PI3K and an interrupted GFP sequence with a T2A sequence between receptor and the GFP sequences (FIG. 10A). […] Exemplary fluorescence identification of GFP and fluorescent tagged CD5 binding and gating quantitation for experimental runs are shown in FIG. 10C and FIG. 10D.
The cargo GFP gene in the previous construct was replaced with intron interrupted CD5-FcR-P13K CAR-M sequence (Morrissey et al., 2018). The CD5 binder expression was measured by flow cytometry using a Alexa647-conjugated CD5 protein such that retrotransposed cells are CD5-AF647 positive (red histogram) compared with a plasmid transfected negative control cell population (grey histogram) (FIG. 30).
The cargo gene length was extended by adding the intron-interrupted GFP gene after the T2A sequence downstream of the CD5-FcR-PI3K CAR-M sequence (FIG. 31). The CD5 binder expression was measured by flow cytometry using a Alexa647-conjugated CD5 protein. […]

B1: LINE-1 plasmid GFP: plasmid with LINE-1 ORF1, ORF2 and CMV promoter driven split GFP gene in reverse orientation in the 3′UTR (SEQ ID NO: 37) (nucleic acid)
DNA: CGGCCGCGGGGGGAGGAGCCAAGATGGCCGAATAGGAACAGCTCCGGTCTACAGCTCCCAGCGTGAGCGACGCAGAAGACGGTGATTTCTGCATTTCCATCTGAGGTACCGGGTTCATCTCACTAGGGAGTGCCAGACAGTGGGCGCAGGCCAGTGTGTGTGCGCACCGTGCGCGAGCCGAAGCAGGGCGAGGCATTGCCTCACCTGGGAAGCGCAAGGGGTCAGGGAGTTCCCTTTCCGAGTCAAAGAAAGGGGTGACGGACGCACCTGGAAAATCGGGTCACTCCCACCCGAATATTGCGCTTTTCAGACCGGCTTAAGAAACGGCGCACCACGAGACTATATCCCACACCTGGCTCGGAGGGTCCTACGCCCACGGAATCTCGCTGATTGCTAGCACAGCAGTCTGAGATCAAACTGCAAGGCGGCAACGAGGCTGGGGGAGGGGCGCCCGCCATTGCCCAGGCTTGCTTAGGTAAACAAAGCAGCAGGGAAGCTCGAACTGGGTGGAGCCCACCACAGCTCAAGGAGGCCTGCCTGCCTCTGTAGGCTCCACCTCTGGGGGCAGGGCACAGACAAACAAAAAGACAGCAGTAACCTCTGCAGACTTAAGTGTCCCTGTCTGACAGCTTTGAAGAGAGCAGTGGTTCTCCCAGCACGCAGCTGGAGATCTGAGAACGGGCAGACTGCCTCCTCAAGTGGGTCCCTGACCCCTGACCCCCGAGCAGCCTAACTGGGAGGCACCCCCCAGCAGGGGCACACTGACACCTCACACGGCAGGGTATTCCAACAGACCTGCAGCTGAGGGTCCTGTCTGTTAGAAGGAAAACTAACAACCAGAAAGGACATCTACACCGAAAACCCATCTGTACATCACCATCATCAAAGACCAAAAGTAGATAAAACCACAAAGATGGGGAAAAAACAGAACAGAAAAACTGGAAACTCTAAAACGCAGAGCGCCTCTCCTCCTCCAAAGGAACGCAGTTCCTCACCAGCAACAGAACAAAGCTGGATGGAGAATGATTTTGATGAGCTGAGAGAAGAAGGCTTCAGACGATCAAATTACTCTGAGCTACGGGAGGACATTCAAACCAAAGGCAAAGAAGTTGAAAACTTTGAAAAAAATTTAGAAGAATGTATAACTAGAATAACCAATACAGAGAAGTGCTTAAAGGAGCTGATGGAGCTGAAAACCAAGGCTCGAGAACTACGTGAAGAATGCAGAAGCCTCAGGAGCCGATGCGATCAACTGGAAGAAAGGGTATCAGCAATGGAAGATGAAATGAATGAAATGAAGCGAGAAGGGAAGTTTAGAGAAAAAAGAATAAAAAGAAATGAGCAAAGCCTCCAAGAAATATGGGACTATGTGAAAAGACCAAATCTACGTCTGATTGGTGTACCTGAAAGTGATGTGGAGAATGGAACCAA
In the case of B1, the GFP expression (Jurkat cells) is reported as “successful GFP expression”.

B2: CD5-intron-fcr-PI3K: LINE-1 plasmid with 3 kb cargo encoding intron-interrupted CD5 binding chimeric receptor (ATAK) (SEQ ID NO: 39) (nucleic acid)
DNA: CGGCCGCGGGGGGAGGAGCCAAGATGGCCGAATAGGAACAGCTCCGGTCTACAGCTCCCAGCGTGAGCGACGCAGAAGACGGTGATTTCTGCATTTCCATCTGAGGTACCGGGTTCATCTCACTAGGGAGTGCCAGACAGTGGGCGCAGGCCAGTGTGTGTGCGCACCGTGCGCGAGCCGAAGCAGGGCGAGGCATTGCCTCACCTGGGAAGCGCAAGGGGTCAGGGAGTTCCCTTTCCGAGTCAAAGAAAGGGGTGACGGACGCACCTGGAAAATCGGGTCACTCCCACCCGAATATTGCGCTTTTCAGACCGGCTTAAGAAACGGCGCACCACGAGACTATATCCCACACCTGGCTCGGAGGGTCCTACGCCCACGGAATCTCGCTGATTGCTAGCACAGCAGTCTGAGATCAAACTGCAAGGCGGCAACGAGGCTGGGGGAGGGGCGCCCGCCATTGCCCAGGCTTGCTTAGGTAAACAAAGCAGCAGGGAAGCTCGAACTGGGTGGAGCCCACCACAGCTCAAGGAGGCCTGCCTGCCTCTGTAGGCTCCACCTCTGGGGGCAGGGCACAGACAAACAAAAAGACAGCAGTAACCTCTGCAGACTTAAGTGTCCCTGTCTGACAGCTTTGAAGAGAGCAGTGGTTCTCCCAGCACGCAGCTGGAGATCTGAGAACGGGCAGACTGCCTCCTCAAGTGGGTCCCTGACCCCTGACCCCCGAGCAGCCTAACTGGGAGGCACCCCCCAGCAGGGGCACACTGACACCTCACACGGCAGGGTATTCCAACAGACCTGCAGCTGAGGGTCCTGTCTGTTAGAAGGAAAACTAACAACCAGAAAGGACATCTACACCGAAAACCCATCTGTACATCACCATCATCAAAGACCAAAAGTAGATAAAACCACAAAGATGGGGAAAAAACAGAACAGAAAAACTGGAAACTCTAAAACGCAGAGCGCCTCTCCTCCTCCAAAGGAACGCAGTTCCTCACCAGCAACAGAACAAAGCTGGATGGAGAATGATTTTGATGAGCTGAGAGAAGAAGGCTTCAGACGATCAAATTACTCTGAGCTACGGGAGGACATTCAAACCAAAGGCAAAGAAGTTGAAAACTTTGAAAAAAATTTAGAAGAATGTATAACTAGAATAACCAATACAGAGAAGTGCTTAAAGGAGCTGATGGAGCTGAAAACCAAGGCTCGAGAACTACGTGAAGAATGCAGAAGCCTCAGGAGCCGATGCGATCAACTGGAAGAAAGGGTATCAGCAATGGAAGATGAAATGAATGAAATGAAGCGAGAAGGGAAGTTTAGAGAAAAAAGAATAAAAAGAAATGAGCAAAGCCTCCAAGAAATATGGGACTATGTGAAAAGACCAAATCTACGTCTGATTGGTGTACCTGAAAGTGATG
For B2, the “cells ATAK (CD5 binder) positive” value (HEK293T cells; HEK293T cells transfected with LINE-1 plasmid, 3 kb cargo, labeled CD5 as bait, FIG. 9C) was 36.5%.

B3: LINE-1plasmid-cd5_fcr-pi3k_t2a_GFPintron: LINE-1 plasmid with 3.7 kb cargo: CD5 binding receptor, T2A, intron-interrupted GFP (SEQ ID NO: 40) (nucleic acid)
DNA: CGGCCGCGGGGGGAGGAGCCAAGATGGCCGAATAGGAACAGCTCCGGTCTACAGCTCCCAGCGTGAGCGACGCAGAAGACGGTGATTTCTGCATTTCCATCTGAGGTACCGGGTTCATCTCACTAGGGAGTGCCAGACAGTGGGCGCAGGCCAGTGTGTGTGCGCACCGTGCGCGAGCCGAAGCAGGGCGAGGCATTGCCTCACCTGGGAAGCGCAAGGGGTCAGGGAGTTCCCTTTCCGAGTCAAAGAAAGGGGTGACGGACGCACCTGGAAAATCGGGTCACTCCCACCCGAATATTGCGCTTTTCAGACCGGCTTAAGAAACGGCGCACCACGAGACTATATCCCACACCTGGCTCGGAGGGTCCTACGCCCACGGAATCTCGCTGATTGCTAGCACAGCAGTCTGAGATCAAACTGCAAGGCGGCAACGAGGCTGGGGGAGGGGCGCCCGCCATTGCCCAGGCTTGCTTAGGTAAACAAAGCAGCAGGGAAGCTCGAACTGGGTGGAGCCCACCACAGCTCAAGGAGGCCTGCCTGCCTCTGTAGGCTCCACCTCTGGGGGCAGGGCACAGACAAACAAAAAGACAGCAGTAACCTCTGCAGACTTAAGTGTCCCTGTCTGACAGCTTTGAAGAGAGCAGTGGTTCTCCCAGCACGCAGCTGGAGATCTGAGAACGGGCAGACTGCCTCCTCAAGTGGGTCCCTGACCCCTGACCCCCGAGCAGCCTAACTGGGAGGCACCCCCCAGCAGGGGCACACTGACACCTCACACGGCAGGGTATTCCAACAGACCTGCAGCTGAGGGTCCTGTCTGTTAGAAGGAAAACTAACAACCAGAAAGGACATCTACACCGAAAACCCATCTGTACATCACCATCATCAAAGACCAAAAGTAGATAAAACCACAAAGATGGGGAAAAAACAGAACAGAAAAACTGGAAACTCTAAAACGCAGAGCGCCTCTCCTCCTCCAAAGGAACGCAGTTCCTCACCAGCAACAGAACAAAGCTGGATGGAGAATGATTTTGATGAGCTGAGAGAAGAAGGCTTCAGACGATCAAATTACTCTGAGCTACGGGAGGACATTCAAACCAAAGGCAAAGAAGTTGAAAACTTTGAAAAAAATTTAGAAGAATGTATAACTAGAATAACCAATACAGAGAAGTGCTTAAAGGAGCTGATGGAGCTGAAAACCAAGGCTCGAGAACTACGTGAAGAATGCAGAAGCCTCAGGAGCCGATGCGATCAACTGGAAGAAAGGGTATCAGCAATGGAAGATGAAATGAATGAAATGAAGCGAGAAGGGAAGTTTAGAGAAAAAAGAATAAAAAGAAATGAGCAAAGCCTCCAAGAAATATGGGACTATGTGAAAAGACCAAATCTACGTCTGATTGGTGTACCTGA
B3 was tested, and the “cells express both CAR-M and GFP proteins” value (HEK293T cells; 3.7 kb cargo, flow cytometry signal in Q2, Alexa647-conjugated CD5 protein, FIG. 31) was 10.8% and the “increase of the ATAK receptor and GFP double-positive cells” value (HEK293T cells; 3.7 kb cargo, normalized against mock-transfected cells, FIG. 10B) was “greater than 10 fold”.
